# In publication PMC6224091:
# B1: V5-Par6A (wild type) [not stated] / YFP-Tuba [not stated] (parent)
# chain 1: MARPQRTPARSPDSIVEVKSKFDAEFRRFALPRASVSGFQEFSRLLRAVHQIPGLDVLLGYTDAHGDLLPLTNDDSLHRALASGPPPLRLLVQKRAEADSSGLAFASNSLQRRKKGLLLRPVAPLRTRPPLLISLPQDFRQVSSVIDVDLLPETHRRVRLHKHGSDRPLGFYIRDGMSVRVAPQGLERVPGIFISRLVRGGLAESTGLLAVSDEILEVNGIEVAGKTLDQVTDMMVANSHNLIVTVKPANQRNNVVRGASGRLTGPPSAGPGPAEPDSDDDSSDLVIENRQPPSSNGLSQGPPCWDLHPGCRHPGTRSSLPSLDDQEQASSGWGSRIRGDGSGFSL
# chain 2: MEAGSVVRAIFDFCPSVSEELPLFVGDIIEVLAVVDEFWLLGKKEDVTGQFPSSFVEIVTIPSLKEGERLFVCICEFTSQELDNLPLHRGDLVILDGIPTAGWLQGRSCWGARGFFPSSCVRELCLSSQSRQWHSQSALFQIPEYSMGQARALMGLSAQLDEELDFREGDVITIIGVPEPGWFEGELEGRRGIFPEGFVELLGPLRTVDESVSSGNQDDCIVNGEVDTPVGEEEIGPDEDEEEPGTYGVALYRFQALEPNELDFEVGDKIRILATLEDGWLEGSLKGRTGIFPYRFVKLCPDTRVEETMALPQEGSLARIPETSLDCLENTLGVEEQRHETSDHEAEEPDCIISEAPTSPLGHLTSEYDTDRNSYQDEDTAGGPPRSPGVEWEMPLATDSPTSDPTEVVNGISSQPQVPFHPNLQKSQYYSTVGGSHPHSEQYPDLLPLEARTRDYASLPPKRMYSQLKTLQKPVLPLYRGSSVSASRVVKPRQSSPQLHNLASYTKKHHTSSVYSISERLEMKPGPQAQGLVMEAATHSQGDGSTDLDSKLTQQLIEFEKSLAGPGTEPDKILRHFSIMDFNSEKDIVRGSSKLITEQELPERRKALRPPPPRPCTPVSTSPHLLVDQNLKPAPPLVVRPSRPAPLPPSAQQRTNAVSPKLLSRHRPTCETLEKEGPGHMGRSLDQTSPCPLVLVRIEEMERDLDMYSRAQEELNLMLEEKQDESSRAETLEDLKFCESNIESLNMELQQLREMTLLSSQSSSLVAPSGSVSAENPEQRMLEKRAKVIEELLQTERDYIRDLEMCIERIMVPMQQAQVPNIDFEGLFGNMQMVIKVSKQLLAALEISDAVGPVFLGHRDELEGTYKIYCQNHDEAIALLEIYEKDEKIQKHLQDSLADLKSLYNEWGCTNYINLGSFLIKPVQRVMRYPLLLMELLNSTPESHPDKVPLTNAVLAVKEINVNINEYKRRKDLVLKYRKGDEDSLMEKISKLNIHSIIKKSNRVSSHLKHLTGFAPQIKDEVFEETEKNFRMQERLIKSFIRDLSLYLQHIRESACVKVVAAVSMWDVCMERGHRDLEQFERVHRYISDQLFTNFKERTERLVISPLNQLLSMFTGPHKLVQKRFDKLLDFYNCTERAEKLKDKKTLEELQSARNNYEALNAQLLDELPKFHQYAQGLFTNCVHGYAEAHCDFVHQALEQLKPLLSLLKVAGREGNLIAIFHEEHSRVLQQLQVFTFFPESLPATKKPFERKTIDRQSARKPLLGLPSYMLQSEELRASLLARYPPEKLFQAERNFNAAQDLDVSLLEGDLVGVIKKKDPMGSQNRWLIDNGVTKGFVYSSFLKPYNPRRSHSDASVGSHSSTESEHGSSSPRFPRQNSGSTLTFNPSSMAVSFTSGSCQKQPQDASPPPKECDQGTLSASLNPSNSESSPSRCPSDPDSTSQPRSGDSADVARDVKQPTATPRSYRNFRHPEIVGYSVPGRNGQSQDLVKGCARTAQAPEDRSTEPDGSEAEGNQVYFAVYTFKARNPNELSVSANQKLKILEFKDVTGNTEWWLAEVNGKKGYVPSNYIRKTEYT
# Variants of: B1
# Assay: co-immunoprecipitation (IP: GFP), quantified blot
# Details: with YFP-Tuba; HEK293T cells; co-expressed with HA-Cdc42(G12V); n = 4; parent: 1; read off a plot
row,Variant,ratio to parent
1,chain 1 I133A S134A,0.73
